From paper PMC13480645

Experiments:
S2P6 (human) = assay: BLI
[1] = molecular target: SARS-CoV-2 S-2P protein (SARS-CoV-2 | bacteriophage T4)

S2P6 (human), sequence (VH, as listed by the source, chain 1 of 2): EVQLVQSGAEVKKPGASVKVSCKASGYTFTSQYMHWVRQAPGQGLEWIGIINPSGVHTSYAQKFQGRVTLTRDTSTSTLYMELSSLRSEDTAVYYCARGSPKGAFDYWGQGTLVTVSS
S2P6 (human), sequence (VL, as listed by the source, chain 2 of 2): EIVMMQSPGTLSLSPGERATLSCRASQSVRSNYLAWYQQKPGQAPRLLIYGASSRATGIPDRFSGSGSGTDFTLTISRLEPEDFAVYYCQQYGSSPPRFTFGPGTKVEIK
S2P6 (antibody), sequence (VH): as the sequence (VH, as listed by the source, chain 1 of 2) above
S2P6 (antibody), sequence (VL): as the sequence (VL, as listed by the source, chain 2 of 2) above

Substance | Kd (S2P6 (human)) | kon (S2P6 (human)) | IC50 of neutralisation of SARS-CoV-2 pseudovirus (HeLa-hACE2 cells) [1]
SARS-CoV-2 S-2P protein (domain or fragment) | 1.3 nM | 559000 M⁻¹ s⁻¹ | 
S2P6 (antibody) |  |  | 6.16 µg/mL
